Measurements published in patent US20100233157A1 (published 2010).

Tests used:
[1] = biological target: T1, Human Fas (CD95) on the cell surface (human, UniProt P25445 26-335); assay: flow cytometry on SKW6.4 cells, FITC anti-human IgG secondary, geometric MFI after background subtraction
T1 construct: also called APO-1; TNR6_Human
T1 sequence: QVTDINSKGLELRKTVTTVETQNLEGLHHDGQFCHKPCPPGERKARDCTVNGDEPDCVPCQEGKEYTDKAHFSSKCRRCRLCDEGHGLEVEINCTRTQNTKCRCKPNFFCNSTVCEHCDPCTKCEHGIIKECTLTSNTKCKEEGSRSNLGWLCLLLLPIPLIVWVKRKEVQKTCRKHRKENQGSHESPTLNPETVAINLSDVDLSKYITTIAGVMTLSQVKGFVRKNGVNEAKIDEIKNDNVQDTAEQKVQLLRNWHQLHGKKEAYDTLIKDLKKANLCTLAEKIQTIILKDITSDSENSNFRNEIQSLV
Protocol: (§1) Binding of F45D9-γ1 and F45D9-γ4 to the surface of Fas expressing Jurkat and SKW6.4 cells (from ATCC, Jurkat, clone E6-1, ATCC-TIB-152, Human T Leukemia cell line); SKW6.4 cells, ATCC-TIB-215, Human B lymphoblastoid cell line) was explored by immunofluorescence staining and flow cytometry analysis. Cells were cultured in RPMI 1640 medium (GIBCO, Cat. 3105205) supplemented with 2 mM glutamax (GIBCO), 100 UI/mL penicillin, 100 μg/mL streptomycin (Sigma) and 5-10% fetal bovine serum (GIBCO), at 37° C. and 5% CO₂. After washing in PBS Jurkat or SKW6.4 cells (0.2×10⁶ cells/well) were incubated in staining buffer (PBS/1% FBS) containing F45D9-γ1, F45D9-γ4 or human IgG control antibodies (Human IgG1, kappa, Sigma, Cat. I5154 or Human IgG4, kappa, Sigma, Cat. I4639) in a 96-well U-bottom plate for 30 min on ice, in a 100 ul/well volume. Cells were then washed once with staining buffer, and further incubated for 30 min on ice with 1:30 dilution of FITC-conjugated rabbit F(ab′)₂ anti-human IgG (DakoCytomation Cat. F0056). After washing and fixing with 1% formaldehyde in PBS cells were analyzed in a FACScan (Becton Dickinson, Mountain View, Calif.). The reactivity of F45D9-γ1 and F45D9-γ4 to the surface of Jurkat cells was quantified and Geometric Mean Fluorescence Intensity (MFI) after background subtraction (FIG. 1A) and histograms (FIG. 1B) are shown. […]

[2] = biological target: T2, JPT32 peptide (human); assay: peptide microarray (JPT), 50 ug/ml antibody
T2 construct: Peptide of the human Fas peptide scan, immobilized on a glass microarray (JPT peptide technologies)
T2 peptide: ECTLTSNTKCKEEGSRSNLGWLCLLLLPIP
Protocol: (§2) Epitope mapping of F45D9-γ1 and F45D9-γ4 mAb was done using peptide microarrays from JPT peptide technologies. The microarray is composed of several different peptide scans of TNR6_Human protein (FAS molecule, accession number P25445; Oehm A. et al. J. Biol. Chem. 267:10709, 1992), immobilized on a glass surface. The microarrays were pre-treated 2 h at room temperature with blocking buffer (Pierce, Superblock), followed by washings with TBS buffer, pH 8.0 and water (3 times each). Pre-treated arrays were scanned using Axon-4000B-Microarray Scanner for background control. […] Control incubation with secondary antibody only was performed in parallel. All microarrays were scanned using Axon-4000B-Microarray Scanner with appropriate wavelength settings. SPOT recognition software package ArrayPro was used for data analysis. Mean of signal intensities from 3 identical subarrays on each microarray image were used for data evaluation.

[3] = biological target: T3, JPT31 peptide (human); assay: peptide microarray (JPT), 50 ug/ml antibody
T3 construct: Peptide of the human Fas peptide scan, immobilized on a glass microarray (JPT peptide technologies)
T3 peptide: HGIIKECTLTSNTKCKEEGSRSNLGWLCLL
Protocol: as §2

[4] = biological target: T4, JPT33 peptide (human); assay: peptide microarray (JPT), 50 ug/ml antibody
T4 construct: Peptide of the human Fas peptide scan, immobilized on a glass microarray (JPT peptide technologies)
T4 peptide: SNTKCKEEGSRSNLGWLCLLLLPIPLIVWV
Protocol: as §2

[5] = biological target: T1, Human Fas (CD95) on the cell surface; assay: flow cytometry on Jurkat cells, FITC anti-human IgG secondary, geometric MFI after background subtraction
Protocol: as §1

- EC50 (read off the curve) [1]: ~0.4 µg/mL
- binding result [2]: binds
- binding result [3]: binds
- binding result [4]: binds
- EC50 (read off the curve) [5]: ~0.5 µg/mL
B1: F45D9-γ1 mAb (recombinant human mAb T17/B2-1G4, gamma-1 isotype) (antibody, V domains shown)
VH: QVQLQQWGAGLLKPSETLSLICAVYGGSFSTYYWTWIRQPPGKGLEWIGEINHRGTTNYSPSLKSRVTISVDTSKNHISLNLTSVTAADTALYYCARGLLWIGEGDYGLDVWGQGTTVTVSS
VL: DIQMTQSPSSLSASVGDRVTITCRASQGIRRWLAWYQQKPEKAPKSLIYAASSLQSGVPSRFSGSGSGTDFTLTISSLQPEDFATYYCQQYNSYPYTFGQGTKLEIKR
notes: Whole human IgG1 (γ1fa allotype) with human kappa light chain, made in CHO DG44 cells; also called IgG1; T17/L18/B2-1G4
